For the assay, the target named is T1, sstr3 (UniProt P32745 1-418, limits assumed).
T1 construct: whole, on cells; Membranes of transfected CHO-K1 cells; The species is printed only for sstr2 (human); also called somatostatin receptor subtype 3
The assay can be described thus: competitive filtration binding assay, displacement of [^125I]-Tyr-somatostatin-14 (0.2 nM) from CHO-K1 membranes. As for the experimental part: Membranes from Chinese hamster ovary K1 cells transfected with sstr1, sstr2, sstr3, sstr5, and [¹²⁵I]-Tyr-somatostatin-14 were obtained from PerkinElmer. A standard filtration binding assay was performed in 96-well plates (MultiScreen; Millipore) to determine the binding affinities (inhibition constant, or Kᵢ) of AMBF₃-TATE against different receptor subtypes. Briefly, membranes ([…]) were incubated with the ¹²⁵I-labelled standard at a concentration of 0.05 nM for sstr2 or 0.2 nM for other subtypes. Increasing concentrations of AMBF₃-TATE were added to the wells in buffer (25 mM N-2-hydroxyethylpiperazine-N-2-ethanesulfonic acid, pH 7.4; 10 mM MgCl₂; 1 mM CaCl₂; and 0.5% bovine serum albumin). After incubation (37° C., 1 h), the wells were aspirated and washed 8 times with 50 mM ice-cold buffer (Tris-HCl, pH 7.4) over grade GF/B filters. The filters were removed and counted by a γ counter (Cobra II; Packard). Data were fitted to a 1-site competition model (GraphPad Prism 6.1 software) to calculate Kᵢ.

Bridge positions count the residues as written; N and C are the ends. Square brackets hold non-standard residues; d marks the D form. AMBF3 = N,N-dimethylammoniomethyl-trifluoroborate

T1 sequence (P32745 whole entry): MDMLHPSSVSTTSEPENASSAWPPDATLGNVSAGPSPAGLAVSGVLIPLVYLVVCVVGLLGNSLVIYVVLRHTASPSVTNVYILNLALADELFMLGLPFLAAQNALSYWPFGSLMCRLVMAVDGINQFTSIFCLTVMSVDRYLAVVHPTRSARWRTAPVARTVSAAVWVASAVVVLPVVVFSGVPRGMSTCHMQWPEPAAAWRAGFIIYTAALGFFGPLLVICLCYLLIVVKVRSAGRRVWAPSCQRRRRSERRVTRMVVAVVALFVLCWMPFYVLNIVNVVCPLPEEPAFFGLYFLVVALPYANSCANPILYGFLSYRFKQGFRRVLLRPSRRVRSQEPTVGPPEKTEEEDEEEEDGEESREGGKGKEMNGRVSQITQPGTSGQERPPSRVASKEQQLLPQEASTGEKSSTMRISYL

B1: AMBF3-TATE (peptide)
peptide: {AMBF3-triazolylacetyl}-[dF]CY[dW]KTCT-OH
modifications: disulfide 2-7
notes: Free C-terminal acid (octreotate); also called ^19F-AMBF3-TATE; ^18F-AMBF3-TATE
For B1, the Ki was found to be 28.4 nM.

The Ki is the dissociation constant of the complex between target and ligand, obtained from inhibition or displacement.
